Blank lines part the entries; values can stand above or below the molecule they belong to.
Key:
Assay in all cases: cell-based or functional assay
[1] = biological target: T1, NF-ATp expressed from an NF-ATp expression plasmid (pREP4-NF-ATp)
T1 sequence (Q60591 1-927, species assumed, looked up): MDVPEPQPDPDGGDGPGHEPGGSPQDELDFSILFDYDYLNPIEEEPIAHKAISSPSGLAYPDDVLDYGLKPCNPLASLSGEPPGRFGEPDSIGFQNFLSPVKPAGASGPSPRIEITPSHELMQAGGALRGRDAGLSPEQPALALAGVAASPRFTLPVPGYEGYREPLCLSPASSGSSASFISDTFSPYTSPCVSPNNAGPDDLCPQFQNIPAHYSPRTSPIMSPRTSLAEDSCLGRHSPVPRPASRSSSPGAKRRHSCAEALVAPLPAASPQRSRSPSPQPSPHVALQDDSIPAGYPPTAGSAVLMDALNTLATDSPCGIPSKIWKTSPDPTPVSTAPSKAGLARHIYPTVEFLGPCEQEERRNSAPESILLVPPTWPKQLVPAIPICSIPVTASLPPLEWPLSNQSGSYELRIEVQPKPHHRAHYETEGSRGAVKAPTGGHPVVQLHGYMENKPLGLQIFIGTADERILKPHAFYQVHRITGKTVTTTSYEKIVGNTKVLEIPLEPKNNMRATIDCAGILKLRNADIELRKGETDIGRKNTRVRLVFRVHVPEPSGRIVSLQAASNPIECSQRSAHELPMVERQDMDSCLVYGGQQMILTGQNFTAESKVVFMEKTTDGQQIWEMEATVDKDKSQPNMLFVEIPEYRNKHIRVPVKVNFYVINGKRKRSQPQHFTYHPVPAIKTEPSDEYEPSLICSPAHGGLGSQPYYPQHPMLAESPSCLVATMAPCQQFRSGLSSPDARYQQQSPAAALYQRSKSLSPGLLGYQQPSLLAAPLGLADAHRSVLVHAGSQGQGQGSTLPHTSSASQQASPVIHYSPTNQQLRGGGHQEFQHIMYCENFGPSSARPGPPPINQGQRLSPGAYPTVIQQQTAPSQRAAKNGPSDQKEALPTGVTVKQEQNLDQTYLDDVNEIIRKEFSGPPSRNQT

[2] = biological target: T1, NF-ATp expressed from an NF-ATp expression plasmid (pREP4-NF-ATp); remark: listed apart in the source
[3] = biological target: T2, NF-ATc expressed from an expression construct
T2 sequence (O95644 1-943, species assumed, looked up): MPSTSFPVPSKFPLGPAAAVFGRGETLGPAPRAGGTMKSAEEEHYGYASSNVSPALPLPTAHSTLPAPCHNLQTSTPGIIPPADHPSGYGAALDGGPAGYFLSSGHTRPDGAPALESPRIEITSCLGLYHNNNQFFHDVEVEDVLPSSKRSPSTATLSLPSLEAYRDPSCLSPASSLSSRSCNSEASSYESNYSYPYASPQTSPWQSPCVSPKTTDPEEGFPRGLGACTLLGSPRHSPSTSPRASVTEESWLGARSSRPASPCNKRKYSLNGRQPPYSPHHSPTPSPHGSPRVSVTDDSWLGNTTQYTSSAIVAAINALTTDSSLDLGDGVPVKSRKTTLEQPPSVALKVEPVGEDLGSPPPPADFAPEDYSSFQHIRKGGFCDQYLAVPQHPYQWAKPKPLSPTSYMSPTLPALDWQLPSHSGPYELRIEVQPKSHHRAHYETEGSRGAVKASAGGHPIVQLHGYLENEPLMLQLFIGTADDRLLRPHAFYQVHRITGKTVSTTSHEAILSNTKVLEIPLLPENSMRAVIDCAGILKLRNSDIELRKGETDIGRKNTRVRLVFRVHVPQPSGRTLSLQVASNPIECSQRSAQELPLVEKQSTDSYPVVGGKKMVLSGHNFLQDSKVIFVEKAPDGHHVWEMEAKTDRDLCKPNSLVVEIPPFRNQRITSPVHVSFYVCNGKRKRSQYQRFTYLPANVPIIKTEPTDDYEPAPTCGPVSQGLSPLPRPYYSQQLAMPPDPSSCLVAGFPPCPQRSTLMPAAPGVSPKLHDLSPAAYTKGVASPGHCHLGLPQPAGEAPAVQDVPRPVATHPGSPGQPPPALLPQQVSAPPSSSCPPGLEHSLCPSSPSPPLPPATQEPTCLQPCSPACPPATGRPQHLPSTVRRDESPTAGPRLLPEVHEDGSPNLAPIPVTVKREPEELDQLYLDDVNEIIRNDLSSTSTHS

[4] = biological target: T3, NF-AT3 expressed from an expression construct
T3 sequence (Q14934 1-902, species assumed, looked up): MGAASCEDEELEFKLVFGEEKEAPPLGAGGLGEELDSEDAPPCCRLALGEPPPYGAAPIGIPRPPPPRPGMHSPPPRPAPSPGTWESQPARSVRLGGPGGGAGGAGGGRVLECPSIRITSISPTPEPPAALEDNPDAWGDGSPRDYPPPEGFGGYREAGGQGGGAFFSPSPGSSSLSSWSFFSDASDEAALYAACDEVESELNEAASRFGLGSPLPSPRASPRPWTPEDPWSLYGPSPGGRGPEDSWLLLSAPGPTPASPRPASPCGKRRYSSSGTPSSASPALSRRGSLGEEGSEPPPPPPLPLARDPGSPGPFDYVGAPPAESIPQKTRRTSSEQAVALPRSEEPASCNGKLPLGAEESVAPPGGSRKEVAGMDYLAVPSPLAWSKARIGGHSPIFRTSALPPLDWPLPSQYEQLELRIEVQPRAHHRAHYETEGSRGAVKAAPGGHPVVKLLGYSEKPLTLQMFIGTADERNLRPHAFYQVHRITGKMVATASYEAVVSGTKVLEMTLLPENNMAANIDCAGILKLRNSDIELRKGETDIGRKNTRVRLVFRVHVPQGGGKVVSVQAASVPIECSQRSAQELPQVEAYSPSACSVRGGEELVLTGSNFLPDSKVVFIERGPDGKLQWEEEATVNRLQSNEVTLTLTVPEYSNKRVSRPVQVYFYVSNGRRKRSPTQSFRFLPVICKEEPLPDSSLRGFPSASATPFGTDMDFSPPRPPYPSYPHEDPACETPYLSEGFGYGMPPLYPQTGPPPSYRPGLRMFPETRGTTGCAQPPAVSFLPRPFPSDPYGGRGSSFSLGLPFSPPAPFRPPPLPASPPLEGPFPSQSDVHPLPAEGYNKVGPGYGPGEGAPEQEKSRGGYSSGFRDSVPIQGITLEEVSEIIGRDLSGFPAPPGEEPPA

[5] = biological target: T4, NF-AT4 expressed from an expression construct
T4 sequence (Q12968 2-1075, species assumed, looked up): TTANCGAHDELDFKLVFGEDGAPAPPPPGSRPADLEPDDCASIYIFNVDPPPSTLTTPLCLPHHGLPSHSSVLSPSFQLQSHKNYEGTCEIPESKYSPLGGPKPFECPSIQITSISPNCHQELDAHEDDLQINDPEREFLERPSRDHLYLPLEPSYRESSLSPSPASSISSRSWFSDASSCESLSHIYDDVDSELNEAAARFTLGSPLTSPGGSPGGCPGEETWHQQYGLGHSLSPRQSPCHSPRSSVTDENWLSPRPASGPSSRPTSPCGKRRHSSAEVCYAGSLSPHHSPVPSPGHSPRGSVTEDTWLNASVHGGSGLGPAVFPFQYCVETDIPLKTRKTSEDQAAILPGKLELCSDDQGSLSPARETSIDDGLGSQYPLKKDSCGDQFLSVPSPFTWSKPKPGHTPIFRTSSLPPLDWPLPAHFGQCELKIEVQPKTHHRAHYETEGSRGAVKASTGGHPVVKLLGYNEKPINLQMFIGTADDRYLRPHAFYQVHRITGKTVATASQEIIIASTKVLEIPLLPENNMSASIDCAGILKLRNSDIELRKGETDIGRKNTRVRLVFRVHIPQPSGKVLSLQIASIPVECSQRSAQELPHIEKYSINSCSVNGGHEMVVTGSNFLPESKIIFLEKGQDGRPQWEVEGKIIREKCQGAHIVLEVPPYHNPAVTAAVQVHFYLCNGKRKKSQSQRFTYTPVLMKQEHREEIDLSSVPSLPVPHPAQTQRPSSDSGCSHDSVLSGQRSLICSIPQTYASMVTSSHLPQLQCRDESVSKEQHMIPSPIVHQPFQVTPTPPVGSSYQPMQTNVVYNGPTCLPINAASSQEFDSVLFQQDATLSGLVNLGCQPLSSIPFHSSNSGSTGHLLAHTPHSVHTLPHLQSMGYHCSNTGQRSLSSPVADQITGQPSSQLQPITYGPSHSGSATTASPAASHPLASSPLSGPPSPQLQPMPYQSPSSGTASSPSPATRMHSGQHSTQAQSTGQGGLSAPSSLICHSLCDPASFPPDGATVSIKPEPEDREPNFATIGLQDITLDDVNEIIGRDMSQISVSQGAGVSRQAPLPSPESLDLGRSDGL

CAT Activity (fold induction), IL-4 CAT reporter in M12 cells, no PMA/iono., Exp. I (fold induction) [1]: 136
CAT Activity (fold induction), IL-4 CAT reporter in M12 cells, no PMA/iono., Exp. II (fold induction) [1]: 54
CAT Activity (fold induction), IL-4 CAT reporter in M12 cells, no PMA/iono., Exp. III (fold induction) [1]: 26.3
CAT Activity (fold induction), IL-4 CAT reporter in M12 cells, with PMA/iono., Exp. I (fold induction) [1]: 138
CAT Activity (fold induction), IL-4 CAT reporter in M12 cells, with PMA/iono., Exp. II (fold induction) [1]: 100
CAT Activity (fold induction), IL-4 CAT reporter in M12 cells, with PMA/iono., Exp. III (fold induction) [1]: 54.7
Molecule: c-Maf expressed from the c-Maf expression vector pMEX-Maf (full-length 4.3 kb c-maf cDNA clone) (from UniProt P54843 1-370)

CAT activity, 3X NF-AT-CAT reporter in HepG2 cells, relative to NF-ATp alone [2]: 4 to 5 fold
CAT activity, 3X NF-AT-CAT reporter in HepG2 cells, relative to vector alone [2]: 25 to 30 fold
transactivation of the 3X NF-AT-CAT reporter in HepG2 cells [3]: 4 fold
transactivation of the 3X NF-AT-CAT reporter in HepG2 cells [4]: 3 fold
transactivation of the 3X NF-AT-CAT reporter in HepG2 cells [5]: 2 fold
B1: NIP45 expressed from a NIP45 expression plasmid (protein)
chain: MAEPLRGRGPRSRGGRGARRARGARGRCPRARQSPARLIPDTVLVDLVSDSDEEVLEVADPVEVPVARLPAPAKPEQDSDSDSEGAAEGPAGAPRTLVRRRRRRLLDPGEAPVVPVYSGKVQSSLNLIPDNSSLLKLCPSEPEDEADLTNSGSSPSEDDALPSGSPWRKKLRKKCEKEEKKMEEFPDQDISPLPQPSSRNKSRKHTEALQKLREVNKRLQDLRSCLSPKQHQSPALQSTDDEVVLVEGPVLPQSSRLFTLKIRCRADLVRLPVRMSEPLQNVVDHMANHLGVSPNRILLLFGESELSPTATPSTLKLGVADIIDCVVLASSSEATETSQELRLRVQGKEKHQMLEISLSPDSPLKVLMSHYEEAMGLSGHKLSFFFDGTKLSGKELPADLGLESGDLIEVWG
